Test results from article PMC3412936 (Journal of molecular biology, 2012).
Numbering of substitutions follows the chain as printed.

What was measured:
Assay in all cases: ITC
[1] = target: T1, WW1 domain (residues 16-50) of human WWOX (human, UniProt Q9NZC7 16-50)
T1 chain (looked up): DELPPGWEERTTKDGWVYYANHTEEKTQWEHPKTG

[2] = target: engineered WW2_RW domain of WWOX (E66R/Y85W double-mutant of WW2 domain) (human, UniProt Q9NZC7 57-91, E66R | Y85W)
[3] = target: T2, WW1-WW2 tandem domains (residues 16-91) of human WWOX (human, UniProt Q9NZC7 16-91)
T2 sequence (looked up): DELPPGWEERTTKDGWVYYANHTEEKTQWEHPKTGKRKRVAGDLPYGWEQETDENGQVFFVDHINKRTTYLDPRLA

[4] = target: T3, engineered WW1-WW2rw tandem domains of WWOX (human, UniProt Q9NZC7 16-91, E66R | Y85W)
T3 sequence (looked up): T2 sequence (looked up) with E51R, Y70W

engineered WW2_RW domain of WWOX (E66R/Y85W double-mutant of WW2 domain), sequence (Q9NZC7 57-91 E66R/Y85W): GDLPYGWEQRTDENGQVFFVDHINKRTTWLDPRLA

Kd [1]	Kd [2]	dH [2]	Kd [3]	Kd [4]	dH [4]	stoichiometry N [4]	dH [1]	dH [3]	stoichiometry N [3]	Binder
> 1000 µM	80 µM	-5.59 kcal/mol	> 1000 µM	103 µM	-8.66 kcal/mol	1.07				STFKPPAYEDVV [WBP1_PY1 peptide (12-mer spanning the PY1 PPXY motif of human WBP1)]
366 µM	123 µM	-12.1 kcal/mol	132 µM	101 µM	-10.1 kcal/mol	2.02	-16.1 kcal/mol	-9.85 kcal/mol	0.99	PGTPPPPYTVAP [WBP1_PY2 peptide (12-mer spanning the PY2 PPXY motif of human WBP1)]
> 1000 µM	69 µM	-8.44 kcal/mol	326 µM	86 µM	-11.5 kcal/mol	1.02		-3.36 kcal/mol	1.03	VQPPPPPYPGPM [WBP2_PY2 peptide (12-mer spanning the PY2 PPXY motif of human WBP2)]
